Results on four molecules are retold here after patent publication US20240124607A1 (Merck Sharp & Dohme, published 2024).

A word on the Kd: it is a measure of binding affinity in units of concentration. A low value points to tighter binding. By kon is commonly meant the rate constant with which the complex forms. A high value points to fast association. A word on the EC50: it is the concentration at which the effect is half-maximal. Read a low EC50 as a more potent agent. In general, koff refers to the first-order rate constant of dissociation. Read a low koff as slow dissociation.

T1: Human CEACAM5 (E398) (human, UniProt P06731 35-685, limits assumed)
T1 construct: also called hCEACAM5
T1 sequence: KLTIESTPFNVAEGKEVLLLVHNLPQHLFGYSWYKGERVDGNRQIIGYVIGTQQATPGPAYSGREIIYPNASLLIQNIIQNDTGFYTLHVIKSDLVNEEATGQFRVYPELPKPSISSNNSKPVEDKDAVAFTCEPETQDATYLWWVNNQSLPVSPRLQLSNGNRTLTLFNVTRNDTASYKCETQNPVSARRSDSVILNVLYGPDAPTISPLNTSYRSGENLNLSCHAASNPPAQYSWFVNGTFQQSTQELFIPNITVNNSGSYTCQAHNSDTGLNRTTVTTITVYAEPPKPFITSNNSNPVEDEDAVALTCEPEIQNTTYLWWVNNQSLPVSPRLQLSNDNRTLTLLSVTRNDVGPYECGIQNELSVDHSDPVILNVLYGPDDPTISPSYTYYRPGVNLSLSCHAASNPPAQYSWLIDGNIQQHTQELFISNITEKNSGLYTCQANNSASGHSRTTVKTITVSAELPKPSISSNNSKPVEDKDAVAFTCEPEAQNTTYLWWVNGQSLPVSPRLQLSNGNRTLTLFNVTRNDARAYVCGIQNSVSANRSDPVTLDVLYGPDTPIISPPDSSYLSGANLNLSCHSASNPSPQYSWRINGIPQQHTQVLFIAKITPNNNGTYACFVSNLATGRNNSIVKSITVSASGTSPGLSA

T2: Human CEACAM5 (K398) (human, UniProt P06731 35-685, limits assumed)
T2 construct: also called K398 allele
T2 sequence: T1 sequence with E364K

T3: human CEACAM5 on cells (human, UniProt P06731 35-685)
T3 construct: tumour cell lines with endogenous CEACAM5, or B16F10 engineered to express hCEACAM5; also called CEACAM5 on MKN-45, HPAF-II, SK-CO-1, LoVo, BxPC-3, Kato-III, LS-174T, ZR-75-30; hCEACAM5-B16F10
T3 sequence: T1 sequence

T4: soluble mouse Fc-human NKG2D dimer (human, UniProt P26718 78-216, limits assumed)
T4 construct: also called NKG2D-mFc; human NKG2D fused to a mouse Fc
T4 sequence (looked up): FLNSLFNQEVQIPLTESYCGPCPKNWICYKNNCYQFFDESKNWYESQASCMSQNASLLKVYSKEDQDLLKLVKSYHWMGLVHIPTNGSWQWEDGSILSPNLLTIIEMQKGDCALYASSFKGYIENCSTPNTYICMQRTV

T5: Cyno NKG2D-mFc (cynomolgus monkey, UniProt P61252 78-216, limits assumed)
T5 construct: also called cynomolgus NKG2D fused to a mouse Fc
T5 sequence (looked up): T4 sequence (looked up) with D38N, T128I

B1: AB0466 F3' CEACAM5 TriNKET (bispecific antibody, human IgG1, kappa)
chain: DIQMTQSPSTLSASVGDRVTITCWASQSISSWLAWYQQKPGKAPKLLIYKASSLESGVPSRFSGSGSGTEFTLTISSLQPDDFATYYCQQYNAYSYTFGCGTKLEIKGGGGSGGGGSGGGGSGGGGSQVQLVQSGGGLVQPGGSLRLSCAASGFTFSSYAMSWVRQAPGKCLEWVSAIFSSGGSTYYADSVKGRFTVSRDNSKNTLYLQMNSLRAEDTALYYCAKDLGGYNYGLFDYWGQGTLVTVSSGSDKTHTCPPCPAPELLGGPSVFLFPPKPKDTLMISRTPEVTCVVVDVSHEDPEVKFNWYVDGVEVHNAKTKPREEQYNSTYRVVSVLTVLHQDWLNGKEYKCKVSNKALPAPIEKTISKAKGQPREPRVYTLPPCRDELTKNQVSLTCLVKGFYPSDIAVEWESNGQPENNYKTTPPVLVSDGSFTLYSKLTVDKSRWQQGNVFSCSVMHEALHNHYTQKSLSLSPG
heavy: EVQLVESGGGLVKPGGSLRLSCAASGFTFSSYSMNWVRQAPGKGLEWVSSISSSSSYIYYADSVKGRFTISRDNAKNSLYLQMNSLRAEDTAVYYCARGAPIGAAAGWFDPWGQGTLVTVSSASTKGPSVFPLAPSSKSTSGGTAALGCLVKDYFPEPVTVSWNSGALTSGVHTFPAVLQSSGLYSLSSVVTVPSSSLGTQTYICNVNHKPSNTKVDKKVEPKSCDKTHTCPPCPAPELLGGPSVFLFPPKPKDTLMISRTPEVTCVVVDVSHEDPEVKFNWYVDGVEVHNAKTKPREEQYNSTYRVVSVLTVLHQDWLNGKEYKCKVSNKALPAPIEKTISKAKGQPREPQVCTLPPSRDELTENQVSLTCLVKGFYPSDIAVEWESNGQPENNYKTTPPVLDSDGSFFLYSWLTVDKSRWQQGNVFSCSVMHEALHNHYTQKSLSLSPG
light: DIQMTQSPSSVSASVGDRVTITCRASQGISSWLAWYQQKPGKAPKLLIYAASSLQSGVPSRFSGSGSGTDFTLTISSLQPEDFATYYCQQGVSFPRTFGGGTKVEIKRTVAAPSVFIFPPSDEQLKSGTASVVCLLNNFYPREAKVQWKVDNALQSGNSQESVTEQDSKDSTYSLSSTLTLSKADYEKHKVYACEVTHQGLSSPVTKSFNRGEC
B2: AB0411 F3' CEACAM5 TriNKET (bispecific antibody, human IgG1, kappa)
chain: DIQLTQSPATLSVSPGERATLSCRASQSVSSSYLAWYQQKPGQAPRLLIYGASSRATGIPDRFSGSGSGTDFTLTISRLEPEDFAVYYCQQYNNWPLTFGCGTKVEIKGGGGSGGGGSGGGGSGGGGSQVQLVQSGGGLVQPGGSLRLSCAASGFTFTSYAMSWVRQAPGKCLEWVSAISGTGDSTFYADSVKGRFTFSRDNSKNTLYLQMNSLRAEDTAVYYCAKDLGWLQYGLFDYWGQGTLVTVSSGSDKTHTCPPCPAPELLGGPSVFLFPPKPKDTLMISRTPEVTCVVVDVSHEDPEVKFNWYVDGVEVHNAKTKPREEQYNSTYRVVSVLTVLHQDWLNGKEYKCKVSNKALPAPIEKTISKAKGQPREPRVYTLPPCRDELTKNQVSLTCLVKGFYPSDIAVEWESNGQPENNYKTTPPVLVSDGSFTLYSKLTVDKSRWQQGNVFSCSVMHEALHNHYTQKSLSLSPG
heavy: B1 heavy
light: B1 light
B3: AB0621 F3' CEACAM5 TriNKET (bispecific antibody, human IgG1, kappa)
chain: DIVMTQSPDSLAVSLGERATINCKSSHSLLYGNFQNNYLAWYQQKPGQPPKLLIYWASTRESGVPDRFSGSGSGTDFTLTISSLQAEDVAVYYCQQYYSYPYTFGCGTKLEIKGGGGSGGGGSGGGGSGGGGSQVQLVQSGAEVKKPGASVKVSCKASGYTFTAYTIHWVRQAPGQCLEWMGYINPSSGYTEYNQKFKDRTTLTADTSISTAYMELSRLRSDDTAVYYCTREGGLLWFDYWGQGTLVTVSSGSDKTHTCPPCPAPELLGGPSVFLFPPKPKDTLMISRTPEVTCVVVDVSHEDPEVKFNWYVDGVEVHNAKTKPREEQYNSTYRVVSVLTVLHQDWLNGKEYKCKVSNKALPAPIEKTISKAKGQPREPRVYTLPPCRDELTKNQVSLTCLVKGFYPSDIAVEWESNGQPENNYKTTPPVLVSDGSFTLYSKLTVDKSRWQQGNVFSCSVMHEALHNHYTQKSLSLSPG
heavy: B1 heavy
light: B1 light
B4: AB0264 F3' CEACAM5 TriNKET (bispecific antibody, human IgG1, kappa)
chain: B3 chain with S210P
heavy: B1 heavy
light: B1 light

Residue numbers refer to the chain shown, from its start.

One experiment deals with T1, Human CEACAM5 (E398). Nature of the experiment: SPR, 37C, pH 7.4.
The molecule B1 yielded a Kd of 0.0072 µM and a kon of 190000 M⁻¹ s⁻¹.
Molecule B2 registered a Kd of 0.0017 µM and an association rate constant (kon) of 270000 M⁻¹ s⁻¹.
For B3 the same measures were 0.017 µM and 100000 M⁻¹ s⁻¹.

The target of a further experiment is T2, Human CEACAM5 (K398). In words: SPR, 37C, pH 7.4.
With B1, the Kd is 0.0063 µM and the kon worked out at 220000 M⁻¹ s⁻¹.
Regarding B2, binding was put at a Kd of 0.0014 µM and the kon worked out at 270000 M⁻¹ s⁻¹.
The corresponding values for B3 are 0.019 µM and 86000 M⁻¹ s⁻¹.

For another experiment, the target named is T3, human CEACAM5 on cells. Nature of the experiment: flow cytometry, MKN-45 cells. On the procedure: MKN-45 and HPAF-II human cancer cell lines were diluted into FACS buffer and 100,000 cells of each cell type were seeded per well in duplicate into 96-well plates for FACS staining. The cells were washed with PBS, incubated in a 1:2000 dilution of live/dead dye in PBS for 15 minutes, and then washed with FACS buffer. AB0264, AB0411, AB0466, and AB0621 were diluted into FACS buffer, and 50 μl of each diluted TriNKET was added to the cells. After incubation on ice for 30-120 minutes, the cells were washed with FACS buffer. Anti-human IgG-Fc secondary antibody was diluted into FACS buffer, and 50 μl was added per well for detection of the bound TriNKETs. The cells were incubated for 30-60 minutes on ice and then washed with FACS buffer. 50 μl of fixation buffer was added to each well and the cells were incubated for 10 minutes at room temperature. The cells were washed with FACS buffer and resuspended in FACS buffer for analysis with ThermoFisher Attune NxT, BD FACS Celesta SN #H66034400085, or BD FACS Celesta SN #H66034400160.
Background: Flow cytometry measures light scatter and fluorescence of single cells or particles in a stream.
Consider B1, for which the EC50 was 0.0152 µM and the “Max FOB” value was 111 fold over background.
Turning to B2, the midpoint of the response, the EC50, lay at 0.0162 µM and the “Max FOB” value was 120 fold over background.
The corresponding values for B3 are 0.0206 µM and 51.3 fold over background.
Consider B4, for which a half-maximal response (EC50) required 0.0246 µM and the “Max FOB” value is 55 fold over background.

The target of another experiment is T4, soluble mouse Fc-human NKG2D dimer. Nature of the experiment: SPR, NKG2D-mFc captured, 37C, pH 6.0. The protocol:
(§1) Binding to NKG2D was assessed by SPR using a mouse Fc capture kit (Cytiva, #BR100838) immobilized onto a CM5 chip. Human and cynomolgus NKG2D fused to a mouse Fc were captured and AB0411, AB0466, or AB0621 was titrated from 600 nM.
For orientation: SPR reads the build-up and loss of mass on a sensor chip optically.
On to B1, for which the affinity, expressed as Kd, was 0.48 µM; the koff was found to be 0.12 s⁻¹; the kon turned out to be 240000 M⁻¹ s⁻¹.
For B2 the same measures were 0.49 µM, 0.13 s⁻¹ and 280000 M⁻¹ s⁻¹.
The corresponding values for B3 are 0.24 µM, 0.056 s⁻¹ and 240000 M⁻¹ s⁻¹.

In a further experiment the target is T5, Cyno NKG2D-mFc. In words: SPR, NKG2D-mFc captured, 37C, pH 6.0. On the procedure:
as §1
Consider B1, for which the affinity, expressed as Kd, was 0.42 µM; the koff is 0.11 s⁻¹; the kon is 310000 M⁻¹ s⁻¹.
The corresponding values for B2 are 0.5 µM, 0.14 s⁻¹ and 270000 M⁻¹ s⁻¹.
The corresponding values for B3 are 0.3 µM, 0.045 s⁻¹ and 150000 M⁻¹ s⁻¹.
